In article PMC7076015 (2020):

B1: Flag-myc-hnRNP R (wild type) [not stated] / HA-KPNA7 [human] (parent complex)
chain 1: MANQVNGNAVQLKEEEEPMDTSSVTHTEHYKTLIEAGLPQKVAERLDEIFQTGLVAYVDLDERAIDALREFNEEGALSVLQQFKESDLSHVQNKSAFLCGVMKTYRQREKQGSKVQESTKGPDEAKIKALLERTGYTLDVTTGQRKYGGPPPDSVYSGVQPGIGTEVFVGKIPRDLYEDELVPLFEKAGPIWDLRLMMDPLSGQNRGYAFITFCGKEAAQEAVKLCDSYEIRPGKHLGVCISVANNRLFVGSIPKNKTKENILEEFSKVTEGLVDVILYHQPDDKKKNRGFCFLEYEDHKSAAQARRRLMSGKVKVWGNVVTVEWADPVEEPDPEVMAKVKVLFVRNLATTVTEEILEKSFSEFGKLERVKKLKDYAFVHFEDRGAAVKAMDEMNGKEIEGEEIEIVLAKPPDKKRKERQAARQASRSTAYEDYYYHPPPRMPPPIRGRGRGGGRGGYGYPPDYYGYEDYYDDYYGYDYHDYRGGYEDPYYGYDDGYAVRGRGGGRGGRGAPPPPRGRGAPPPRGRAGYSQRGAPLGPPRGSRGGRGGPAQQQRGRGSRGSRGNRGGNVGGKRKADGYNQPDSKRRQTNNQQNWGSQPIAQQPLQQGGDYSGNYGYNNDNQEFYQDTYGQQWK
chain 2: not shown

Variants of: B1
Assay: co-immunoprecipitation (HA-IP, Flag western blot quantified); HEK293T(HA-KPNA7) cell extracts; input 2%, IP 30%; parent: 1

| ratio to parent | Variant |
| --- | --- |
| 0.21 | chain 1 K572A, chain 1 R573A, chain 1 K574A |
| 0.43 | chain 1 K414A, chain 1 K415A, chain 1 R416A |
| 0.2 | chain 1 K584A, chain 1 R585A, chain 1 R586A |
